In paper PMC12905498 (Biochemical Journal, 2026):

B1: Plasmodium berghei HAP2 domain 3 (domain or fragment)
chain: VSIATITHVTIPNDCASNNSNSNECVLIIHVWNNSKFVGSNFSCSIACTNKETDQLASHINPIAPVRAFIGPNKNYAFYFIIKFLINKEITTLCKAIVKDSNGKECSIEEFELQSKESVH
notes: source: Sf21 cells (baculovirus), purified as PfHAP2 D3 (Ni-NTA, SEC)
B2: Plasmodium vivax HAP2 domain 3 (domain or fragment)
chain: VSTATITHITTPKNCSSNQSESKDCVLIVHTWNNSANVGSNFSCHVICTDKETGKIATHIGPISPVNAFIDANKNYAFYFIIKFLINKEIKTMCKAVLRDSNGKECSKEDFLLTSKE
notes: as for B1
B3: Plasmodium falciparum HAP2 domain 3 (PfHAP2 D3 HisAvi), deglycosylated (domain or fragment)
chain: VSYGTITHITIPKDCSSNQTNSKECILVVHTWNNNKTIGANFSCHVLCVDKSTQQVATHISPISKINAHIDANKNYAFYFIIKFLINKKITSNCTAILKDADGRECSKLSFNLTSKETIN
B4: Pfs48/45 Domain 3 (domain or fragment)
chain: KVIHGCNFSSNVSSKHTFTDSLDISLVDDSAHISCNVHLSEPKYNHLVGLNCPGDIIPDCFFQVYQPESEELEPSNIVYLDSQINIGDIEYYEDAEGDDKIKLFGIVGSIPKTTSFTCICKKDKKSAYMTVTIDSA
notes: as for B1
B5: anti-PbHAP2 D3 mAb 6.14 (variable regions in AbVec-hIgG1 and AbVec-IgKappa) (antibody, V domains shown)
VH: EVQLVESGGGLVKPGGSLKLSCAASEFTFSDYGMHWVRQAPEKGLEWVASISSGSNSIYYSDTVKGRFTISRDNAKSILFLQMTSLRSEDTAMYYCSREAYFAMDYWGQGTSVTVSS
VL: DIQMTQSPSSLSAILGGKVTITCKASQDIHKYIAWYQHKPGKGPRLLIYYTSTLQPGIPSRFSGSGSGRDYSFSISNLEPEDVATYFCLQYDNLYTFGGGTKVEIE
notes: also called anti-PbHAP2 mAb 6.14; source: Expi293 cells, transient transfection (1:1 light and heavy chain plasmids), purified as the nanobody-Fcs (HiTrap PrismA)

How the values were obtained:
Conditions in all cases: both partners purified
[1] = target: T1, WNbFc 334 (nanobody WNb 334 fused to hinge and Fc of human IgG1) (alpaca); test: BLI; affinity: nanobody-Fcs or antibodies (5 µg/ml) loaded on anti-human IgG Fc Capture (AHC) tips, two-fold dilution series of antigen; PBS pH 7.4, 0.1% BSA, 0.05% TWEEN-20, 25°C; 1:1 Langmuir model; mean of two experiments
T1 construct: also called WNb 334 nanobody-Fc; source: Expi293 cells, transient transfection, purified (HiTrap PrismA)

[2] = target: T2, WNbFc 333 (nanobody WNb 333 fused to hinge and Fc of human IgG1) (alpaca); test: BLI
T2 construct: also called WNb 333 nanobody-Fc; source: Expi293 cells, transient transfection, purified (HiTrap PrismA)

[3] = target: T2, WNbFc 333 (nanobody WNb 333 fused to …); test: BLI; affinity: nanobody-Fcs or antibodies (5 µg/ml) loaded on anti-human IgG Fc Capture (AHC) tips, two-fold dilution series of antigen; PBS pH 7.4, 0.1% BSA, 0.05% TWEEN-20, 25°C; 1:1 Langmuir model; mean of two experiments
[4] = target: T3, WNbFc 335 (nanobody WNb 335 fused to hinge and Fc of human IgG1) (alpaca); test: as above
T3 construct: also called WNb 335 nanobody-Fc; source: Expi293 cells, transient transfection, purified (HiTrap PrismA)

[5] = target: T1, WNbFc 334 (nanobody WNb 334 fused to …); test: ELISA
[6] = target: T2, WNbFc 333 (nanobody WNb 333 fused to …); test: ELISA
[7] = target: T3, WNbFc 335 (nanobody WNb 335 fused to …); test: ELISA
[8] = target: B3; test: BLI; affinity: nanobody-Fcs or antibodies (5 µg/ml) loaded on anti-human IgG Fc Capture (AHC) tips, two-fold dilution series of antigen; PBS pH 7.4, 0.1% BSA, 0.05% TWEEN-20, 25°C; 1:1 Langmuir model; mean of two experiments

Binder: B1
- binding result [1]: binds
- binding result [2]: binds

Binder: B2
- binding result [2]: binds

Binder: B3
- Kd [1]: 26.1 nM
- Kd [3]: 15.8 nM
- Kd [4]: 50.8 nM

Binder: B4
- binding result [5]: no binding (tested: 125 nM)
- binding result [6]: no binding (tested: 125 nM)
- binding result [7]: no binding (tested: 125 nM)

Binder: B5
- binding result [8]: no binding
